Reference: patent US20250084158A1 (ABL BIO, published 2025)
Values belong to the binder of their own block, whether it stands above or below them.

What was measured:
[1] = target: T1, hFc-Human CLL1 (human); test: ELISA, coated antigen
T1 construct: Human CLL1 with N-terminal human IgG1 Fc, made in-house; also called hFc-huCLL1
Description: Antibody candidates of Example 1.2. were analyzed to compare the ligand binding activity by ELISA, using huCLL1-His and hFc-huCLL1 as ligands.
(§1) Briefly, the antigen (ligand) was coated overnight at 4VC. The antigen coated plate was blocked with 1% BSA in PBS at 4VC for 2 hr and incubated with antibodies at 4° C. for 2 hrs. To find out the EC₅₀ (nM) of each antibody, 4-fold serial dilutions were prepared from an antibody solution of a concentration of 50 nM to 0.2 pM and diluted antibodies were treated to each well, and the plate was washed with 1×PBST. Then Goat anti-Human IgG F(ab′)2 cross-adsorbed secondary antibody conjugated with HRP (horseradish peroxidase) (Thermo, 31414) was added to each well and incubated at 4° C. for 1 hr. After wash, a TMB (3,3′,5,5′-tetramethylbenzidine) substrate (Sigma, T0440) was added to each well and the OD at 450 nm was measured by an ELISA plate reader.

[2] = target: T2, human CLL-1 on cells (human, UniProt Q5QGZ9 1-265); test: FACS, HL60 cells (2nd Ab only 5.09)
T2 construct: whole, on cells; Overexpressed in HEK293E cells or carried by CLL1-expressing leukemic cell lines; the cell line is named under assay or readout; also called CLEC12A; huCLL1_293E
T2 sequence (looked up): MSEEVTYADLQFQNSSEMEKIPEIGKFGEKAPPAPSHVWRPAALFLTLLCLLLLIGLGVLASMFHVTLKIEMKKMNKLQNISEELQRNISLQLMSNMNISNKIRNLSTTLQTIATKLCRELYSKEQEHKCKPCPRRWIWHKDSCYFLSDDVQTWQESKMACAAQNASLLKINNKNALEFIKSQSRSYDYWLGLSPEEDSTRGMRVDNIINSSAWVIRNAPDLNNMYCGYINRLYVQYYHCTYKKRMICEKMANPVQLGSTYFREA
Description: (§2) To evaluate cell binding property, the chimeric antibody candidates of Example 1.2. were analyzed in CLL1 negative cells (HEK293E and Jurkat) and various CLL1 expressing cancer cells by using FACS.
(§3) Briefly, cells were incubated with antibodies at 4° C. for 1 hr. Firstly, the cells were washed with an assay buffer (1% BSA in PBS). Then, an anti-human IgG Fc conjugated with FITC (Fluorescein isothiocyanate) (Sigma, F9512) was added to each well and incubated at 4° C. for 1 hr. After wash, the MFI (Median Fluorescence Intensity) of FITC was measured by BD FACS Cal ibur (BD Biosciences).

[3] = target: T2, human CLL-1 on cells; test: FACS, PL21 cells (2nd Ab only 2.82)
Description: as §2, §3

[4] = target: T2, human CLL-1 on cells; test: FACS, U937 cells (2nd Ab only 4.77)
Description: as §2, §3

[5] = target: T2, human CLL-1 on cells; test: FACS, EOL-1 cells (2nd Ab only 2.53)
Description: as §2, §3

[6] = target: T2, human CLL-1 on cells; test: FACS, OCI-AML2 cells (2nd Ab only 3.28)
Description: as §2, §3

[7] = target: T2, human CLL-1 on cells; test: FACS, huCLL1_293E cells (2nd Ab only 5.05)
Description: as §2, §3

[8] = target: T3, hFc-Cynomolgus CLL1 (cynomolgus); test: ELISA, 50 and 100 ng/well coated antigen; stronger than reference 6E7
T3 construct: Cynomolgus CLL1 with N-terminal human IgG1 Fc, made in-house
T3 sequence (chain, as listed by the source limits assumed): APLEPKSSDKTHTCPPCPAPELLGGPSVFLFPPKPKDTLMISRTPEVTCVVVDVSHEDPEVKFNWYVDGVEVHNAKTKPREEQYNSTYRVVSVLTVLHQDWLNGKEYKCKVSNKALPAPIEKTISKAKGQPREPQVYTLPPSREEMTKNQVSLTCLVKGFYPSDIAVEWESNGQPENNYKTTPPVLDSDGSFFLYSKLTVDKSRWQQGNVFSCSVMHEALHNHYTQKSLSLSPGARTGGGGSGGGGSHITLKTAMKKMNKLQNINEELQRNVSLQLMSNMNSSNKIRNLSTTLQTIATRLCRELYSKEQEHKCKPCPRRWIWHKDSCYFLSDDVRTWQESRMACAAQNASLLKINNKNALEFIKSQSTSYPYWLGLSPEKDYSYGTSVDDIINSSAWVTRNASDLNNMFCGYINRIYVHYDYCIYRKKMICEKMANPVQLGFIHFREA
Description: as §1
Continuously, antibody candidates of Example 1.2. were analyzed to compare the ligand binding activities by ELISA, using 50 ng/well and 100 ng/well of hFc-Cynomolgus CLL1 as a ligandin the same manner as described above. Genentech's anti-CLL-1 antibody 6E7 was used as a reference.

[9] = target: T2, human CLL-1 on cells; test: cell-based or functional assay
[10] = target: T2, human CLL-1 on cells; test: cell-based or functional assay; remark: listed apart in the source
[11] = target: T2, human CLL-1 on cells; test: cell-based or functional assay; remark: listed apart in the source
[12] = target: T2, human CLL-1 on cells; test: cell-based or functional assay; remark: listed apart in the source
[13] = target: T2, human CLL-1 on cells; test: FACS (PE-anti-human IgG), U937 cells
Description: (§4) To evaluate the tumor antigen binding property of the bispecific antibody of Example 3, the binding ability of CLL1 targeting portions of 33C2/CD3-R2 and 33C2/CD3-R3 to CLL1 expressed in mammalian cells were analyzed by using FACS.
(§5) Briefly, CLL1 positive cells (U937 and HL60) were incubated with 33C2/CD3-R2 and 33C2/CD3-R3 antibodies. After washing with a FACS buffer (1% BSA in PBS), the PE-anti-human IgG antibodies were added to each well and incubated at 4° C. for 60 min. The MFI (Median Fluorescence Intensity) of PE (phycoerythrin) was evaluated by FACS Calibur. BsAb mock/CD3, which has an anti-CD3 antigen-binding fragment at one arm, and no antigen-binding fragment at another arm, was used as a control group.

[14] = target: T2, human CLL-1 on cells; test: FACS (PE-anti-human IgG), HL-60 cells
Description: as §4, §5

binding result [1]: binds
MFI(FL1-H) [2]: 18.5
MFI(FL1-H) [3]: 38.6
MFI(FL1-H) [4]: 45.8
MFI(FL1-H) [5]: 3.73
MFI(FL1-H) [6]: 19.5
MFI(FL1-H) [7]: 115
binding result [8]: binds
B1: ch16C6(NA) (antibody, human IgG1, kappa, N297A, V domains shown)
VH: EVQLQQSGPELVKPGASVKISCKASGYSFTGYYMHWVKQSHVKSLEWIGHVNPYNGATSFNRNFKDKASLTVDKSSSTAYMELHSLTSEDSAVYYCGRSAYGYYERHFDYWGQGTTLTVSS
VL: DIVLTQSPASLAVSLGQRATISCKASQSVDYDADSYMNWYQQKPGQPPKLLIYAASNLQSGIPARFSGSGSGTDFTLNIHPVEEEDAATYYCQQSDRDPLTFGAGTKLELKR
notes: also called chimeric antibody of 16C6

T-cell activation (NFAT reporter effector cells) with HL-60, EC50 [9]: 40 pM
T-cell activation (NFAT reporter effector cells) with U937, EC50 [9]: 16 pM
CD25 on CD4 T cells, HL60 targets, EC50 [10]: 1.94 pM
CD25 on CD8 T cells, HL60 targets, EC50 [10]: 2.09 pM
CD69 on CD4 T cells, HL60 targets, EC50 [10]: 0.8 pM
CD69 on CD8 T cells, HL60 targets, EC50 [10]: 0.57 pM
U937 cell lysis (so in the source); Table 21 is the HL60 table by paragraph 356), EC50 [10]: 0.97 pM
CD25 on CD4 T cells, U937 targets, EC50 [11]: 1.23 pM
CD25 on CD8 T cells, U937 targets, EC50 [11]: 1.1 pM
CD69 on CD4 T cells, U937 targets, EC50 [11]: 0.61 pM
CD69 on CD8 T cells, U937 targets, EC50 [11]: ~0.5 pM
U937 cell lysis, EC50 [11]: 0.15 pM
specific lysis of HL-60, PBMC donor ABL06, EC50 [12]: 5.07 pM
specific lysis of HL-60, PBMC donor ABL09, EC50 [12]: 1.26 pM
specific lysis of HL-60, PBMC donor ABL10, EC50 [12]: 0.97 pM
specific lysis of HL-60, PBMC donor ABL15, EC50 [12]: 3.04 pM
specific lysis of HL-60, PBMC donor ABL16, EC50 [12]: 7.01 pM
specific lysis of HL-60, PBMC donor ABL17, EC50 [12]: 16.6 pM
specific lysis of HL-60, PBMC donor ABL18, EC50 [12]: 9.43 pM
specific lysis of HL-60, PBMC donor ABL19, EC50 [12]: 8.18 pM
specific lysis of U937, PBMC donor ABL06, EC50 [12]: 0.57 pM
specific lysis of U937, PBMC donor ABL09, EC50 [12]: 0.08 pM
specific lysis of U937, PBMC donor ABL10, EC50 [12]: 0.15 pM
specific lysis of U937, PBMC donor ABL15, EC50 [12]: 0.04 pM
specific lysis of U937, PBMC donor ABL16, EC50 [12]: 0.03 pM
specific lysis of U937, PBMC donor ABL17, EC50 [12]: 1.69 pM
specific lysis of U937, PBMC donor ABL18, EC50 [12]: 3.05 pM
specific lysis of U937, PBMC donor ABL19, EC50 [12]: 0.39 pM
EC50 [13]: 250 pM
EC50 [14]: 90 pM
B2: 33C2/CD3-R3 (bispecific antibody, human IgG1, kappa, N297A)
heavy 1: not shown
heavy 2: QVQLVQSGAEVKKPGASVKVSCKASGYSFTGYAMNWVRQAPGQRLEWIGLINPYNGGAMYNQKFKGRATLTVDTSASTAYMELSSLRSEDTAVYYCARDYRYEGHLDYWGQGTLVTVSSASTKGPSVFPLAPSSKSTSGGTAALGCLVKDYFPEPVTVSWNSGALTSGVHTFPAVLQSSGLYSLSSVVTVPSSSLGTQTYICNVNHKPSNTKVDKKVEPKSCDKTHTCPPCPAPELLGGPSVFLFPPKPKDTLMISRTPEVTCVVVDVSHEDPEVKFNWYVDGVEVHNAKTKPREEQYASTYRVVSVLTVLHQDWLNGKEYKCKVSNKALPAPIEKTISKAKGQPREPQVCTLPPSREEMTKNQVSLSCAVKGFYPSDIAVEWESNGQPENNYKTTPPVLDSDGSFFLVSKLTVDKSRWQQGNVFSCSVMHEALHNHYTQKSLSLSPGK
light 1: EIVLTQSPATLSLSPGERATLSCSATSSVSYMHWYQQKPGQAPRRWIYDTSKLASGIPARFSGSGSGTSYTLTISSLEPEDFAVYYCQQWSSDSPTFGQGTKLEIKRTVAAPSVFIFPPSDEQLKSGTASVVCLLNNFYPREAKVQWKVDNALQSGNSQESVTEQDSKDSTYSLSSTLTLSKADYEKHKVYACEVTHQGLSSPVTKSFNRGEC
light 2: DIVMTQSPDSLAVSLGERATINCKSSQSLLNSRTRKNYLAWYQQKPGQPPKLLIYWASTRQSGVPDRFSGSGSGTDFTLTISSLQAEDVAVYYCTQSHTLRTFGGGTKVEIKPDIQNPDPAVYQLRDSKSSDKSVCLFTDFDSQTQVSQSKDSDVYITDKCVLDMRSMDFKSNSAVAWSQKSDFACANAFQNSIIPEDTFFPSPESS
notes: As 33C2/CD3-R2 but with the (G4S)3 linker; also called anti-CLL-1/anti-CD3 bispecific antibody with (G4S)3 linker
